Source: publication PMC11183095, “PKM2 functions as a histidine kinase to phosphorylate PGAM1 and increase glycolysis shunts in cancer” (The EMBO Journal, 2024)

Molecular target: T1, Recombinant GST-PKM2 (human, UniProt P14618 1-531)
T1 construct: pyruvate kinase M2 (PKM2), human cDNA in pGEX-6P-1; source: E. coli BL21 (DE3), purified (glutathione resin, dialysed in PBS)
Assay: pull-down; recombinant His-PGAM1 immobilised on Ni-beads, mixed with recombinant GST-PKM2 or GST-ENO1; eluate analysed by western blot
Conditions: both partners purified

T1 sequence (P14618 whole entry): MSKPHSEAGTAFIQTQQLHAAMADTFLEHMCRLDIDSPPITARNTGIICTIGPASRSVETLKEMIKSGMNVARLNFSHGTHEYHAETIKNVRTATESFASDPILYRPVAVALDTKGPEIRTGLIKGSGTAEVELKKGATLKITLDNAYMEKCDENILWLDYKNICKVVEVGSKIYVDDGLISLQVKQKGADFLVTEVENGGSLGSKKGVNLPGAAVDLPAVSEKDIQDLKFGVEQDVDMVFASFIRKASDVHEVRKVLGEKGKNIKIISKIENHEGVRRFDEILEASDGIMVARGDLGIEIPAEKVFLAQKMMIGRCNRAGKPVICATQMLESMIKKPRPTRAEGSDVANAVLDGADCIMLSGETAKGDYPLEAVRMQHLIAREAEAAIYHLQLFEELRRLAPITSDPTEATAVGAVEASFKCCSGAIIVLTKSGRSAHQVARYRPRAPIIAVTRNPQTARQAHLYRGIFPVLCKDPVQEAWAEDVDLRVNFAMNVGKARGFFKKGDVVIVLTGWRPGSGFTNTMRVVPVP

binding result: binds
B1: Recombinant His-PGAM1 (enzyme, human)
chain: MAAYKLVLIRHGESAWNLENRFSGWYDADLSPAGHEEAKRGGQALRDAGYEFDICFTSVQKRAIRTLWTVLDAIDQMWLPVVRTWRLNERHYGGLTGLNKAETAAKHGEAQVKIWRRSYDVPPPPMEPDHPFYSNISKDRRYADLTEDQLPSCESLKDTIARALPFWNEEIVPQIKEGKRVLIAAHGNSLRGIVKHLEGLSEEAIMELNLPTGIPIVYELDKNLKPIKPMQFLGDEETVRKAMEAVAAQGKAKK
notes: phosphoglycerate mutase 1 (PGAM1), human cDNA in pET-28a; also called His-tagged PGAM1; source: E. coli BL21 (DE3), purified (Ni resin, dialysed in PBS)
